In patent US7319094B2, “Increased and sustained in vivo gene expression using a nucleic acid, histone and amphipathic compound composition” (Rhode Island Hospital, priority 2001, dated 2008):
Entries after “also recorded” stand apart in the source; their conditions may differ.

Legend:
Format in all cases: cell-based, human
[1] = tested on: PY-PI3 kinase (total PI3 kinase); test: PI3 kinase activity in anti-phospho-tyrosine (PY) immunoprecipitates; details: 24 or 48 hours of stimulation
Experimental: (§1) The cells were harvested in Triton lysis buffer supplemented with protease and phosphatase inhibitors. Total PI3K was immunoprecipitated from 500 μg protein in cell lysates using rabbit polyclonal antibodies to the p85 subunit of PI3K and Protein A sepharose. The immunoprecipitants were incubated for 5 minutes at room temperature with 10 μg of sonicated phosphatidylinositol in HEPES buffer (200 mM HEPES, 4 mM EGTA, 4 mM sodium phosphate, pH 7.0). Reactions were initiated by the addition of 5 μCi [α^32p] ATP, 15 mM MgCl2, 150 mM ATP, 1.5 mM Tris-HCl, pH 7.4, and 15 mM NaCl. After 10 minutes incubation at 30° C., the reactions were stopped by the addition of HCl to a final concentration of 1.2 N, followed by chloroform/methanol extraction. Phosphorylated lipids were analyzed by thin layer chromatography using gel plates pre-coated with 1% oxalate (Merck, White House Station, N.J.). PI3K activity was measured with a phosphorimager.
PI3 kinase is an important mediator of neuronal survival. The pro-survival effects of PI3K are mediated through activation of Akt (protein kinase B) and phosphorylation of Bad to render it inactivated. Inhibition of PI3 kinase activity is associated with PNET2 cell apoptosis. Therefore, experiments were carried out to determine if growth factor stimulated PI3 kinase activity was inhibited in insulin or IGF-1-stimulated cultures. Such inhibition has been observed following chronic ethanol exposure. Since insulin and IGF-1 can activate PI3 kinase through the insulin-receptor substrate-1 (IRS-1) or through IRS-1-independent pathways, both IRS1-associated PI3 kinase and total PI3 kinase activities were measured. These studies were conducted using insulin or PDGF stimulated cultures in which AD7c-NTP gene expression was induced by 3 mM IPTG stimulation. […] Levels of PI3 kinase activity were measured in anti-phospho-tyrosine (PY) immunoprecipitates. […] Similarly, PI3 kinase activity was readily detected in the PY immunoprecipitates prepared with cells stimulated with insulin or PDGF.

[2] = tested on: p21/Waf1; test: p21/Waf1 expression, Western blot / MICE assay; details: PNET2 cells induced to express AD7c-NTP, growth factor stimulated
From the text: Standard Western blot assays wew used to measure cellular levels of p53, Bcl-2, p21/Waf1, phospho-tau, tau, c-fos, NTP, and activated (phosphorylated) forms of Erk mitogen activated protein (MAP) kinase, amino-terminal c-jun-activated kinase (pJNK), and p38/HOG1. Immunoprecipitation followed by Western blot analysis was used to measure p85 subunit associated with IRS1. For Western blot analysis of p53 Bcl-2, phospho-tau, tau, c-fos, and NTP, the cells were lysed in ice cold radioimmunoprecipitation assay (RIPA) buffer supplemented with protease and phosphatase inhibitors. […] Protein concentrations were measured using the BCA assay (Pierce, Rockford, Ill.). Samples containing 60 μg of protein were fractionated by sodium dodecyl sulfate polyacrylamide gel electrophoresis (SDS-PAGE), then transferred to PVDF membranes, and analyzed by Western immunoblotting. Immunoreactivity was detected with horseradish peroxidase conjugated secondary IgG and PicoWest enhanced chemiluminescence reagents (Pierce Chemical Company, Rockford, Ill.). CAT activity was measured using known methods.
The MICE assay is known in the art (e.g., as described by de la Monte et al., 1999, Biotechniques 26:107301076). […] Immunoreactivity was detected using horseradish peroxidase conjugated secondary antibody (Pierce, Rockford, Ill.) and the TMB soluble peroxidase substrate (Pierce, Rockford, Ill.). […]

[3] = tested on: nitric oxide synthase-3 (NOS-3); test: NOS-3 expression, Western blot; details: PNET2 cells induced to express AD7c-NTP; relative to PDGF-stimulated cultures
From the text: Standard Western blot assays wew used to measure cellular levels of p53, Bcl-2, p21/Waf1, phospho-tau, tau, c-fos, NTP, and activated (phosphorylated) forms of Erk mitogen activated protein (MAP) kinase, amino-terminal c-jun-activated kinase (pJNK), and p38/HOG1. Immunoprecipitation followed by Western blot analysis was used to measure p85 subunit associated with IRS1. For Western blot analysis of p53 Bcl-2, phospho-tau, tau, c-fos, and NTP, the cells were lysed in ice cold radioimmunoprecipitation assay (RIPA) buffer supplemented with protease and phosphatase inhibitors. For the immunoprecipitation studies, Western blot analysis of phospho-Erk, pJNK, and p38, and the PI3 kinase assays, the cells were harvested in Triton lysis buffer supplemented with protease and phosphatase inhibitors. Protein concentrations were measured using the BCA assay (Pierce, Rockford, Ill.). Samples containing 60 μg of protein were fractionated by sodium dodecyl sulfate polyacrylamide gel electrophoresis (SDS-PAGE), then transferred to PVDF membranes, and analyzed by Western immunoblotting. Immunoreactivity was detected with horseradish peroxidase conjugated secondary IgG and PicoWest enhanced chemiluminescence reagents (Pierce Chemical Company, Rockford, Ill.). CAT activity was measured using known methods. […]

[4] = tested on: IRS-1-associated PI3 kinase; test: IRS-1-associated PI3 kinase activity; details: 3 mM IPTG-induced cultures, 30 minutes of stimulation
Experimental: as §1, with “After 10 minutes incubation at 30° C., the reactions were stopped by the addition of HCl to a final concentration of 1.2 N, followed by chloroform/methanol extraction.” left out
PI3 kinase is an important mediator of neuronal survival. […] Since insulin and IGF-1 can activate PI3 kinase through the insulin-receptor substrate-1 (IRS-1) or through IRS-1-independent pathways, both IRS1-associated PI3 kinase and total PI3 kinase activities were measured. […] Levels of PI3 kinase activity were measured in anti-phospho-tyrosine (PY) immunoprecipitates. […] Similarly, PI3 kinase activity was readily detected in the PY immunoprecipitates prepared with cells stimulated with insulin or PDGF.

insulin: Human insulin purchased from Novagen
PY-PI3 kinase activity, 24 or 48 hours [1]: similar | p21/Waf1 level [2]: increased levels of p21/Waf1; also recorded: significantly increased levels | NOS-3 level [3]: increased levels | IRS-1-associated PI3 kinase activity [4]: sharply increased
